Patent US20090281042A1 (priority 2005, published 2009)
Read-outs that look alike come from different tables or passages of the source. Ends that are not written are not given here.

Legend:
HCV NS3 protease [1] = target: T1, HCV NS3 protease (Hepatitis C virus genotype 1b, UniProt P26663); details: mean ± S.D., cited from earlier work
T1 construct: In the case of HCV NS3 protease the site is NS5A/B

HCV NS3 protease [2] = target: T1, HCV NS3 protease; details: cited from earlier work
HRV 3C protease = HRV 3C protease (Human rhinovirus 16, UniProt Q82122); assay type: biochemical, HRV 16
E. coli lysate = assay type: biochemical; details: FIG. 5
SARS 3CL protease = SARS 3CL protease (Severe acute respiratory syndrome coronavirus, UniProt P0C6X7)
[3] = Table 7, NS3 + Pep4A, modified decamer peptides vs wild type DEMEECASHL
[4] = Table 7, NS3 alone, modified decamer peptides vs wild type DEMEECASHL
[5] = NS3 + Pep4A, P6 and P1′-modified NS4A/NS4B decamer peptides
[6] = NS3 alone, P6 and P1′-modified NS4A/NS4B decamer peptides

T1 sequence (P26663 1027-1208, other chains not shown): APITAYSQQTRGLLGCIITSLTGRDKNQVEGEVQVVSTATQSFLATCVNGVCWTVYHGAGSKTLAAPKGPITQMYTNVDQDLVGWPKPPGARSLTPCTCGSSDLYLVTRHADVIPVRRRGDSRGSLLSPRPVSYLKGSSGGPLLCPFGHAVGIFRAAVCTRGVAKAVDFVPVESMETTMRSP

O=C(O)CN(CCN(CC(=O)O)CC(=O)O)CC(=O)O [EDTA]
effect of protease inhibitor on cleavage of Pep1 (HeLa lysate): partially inhibited

O=C(O)CN(CCOCCOCCN(CC(=O)O)CC(=O)O)CC(=O)O [EGTA]
effect of protease inhibitor on cleavage of Pep1 (HeLa lysate; Pep1 as substrate): partially inhibited

O=S(=O)(F)Cc1ccccc1 [PMSF]
effect of protease inhibitor on cleavage of Pep1 (HeLa lysate; Pep1 as substrate): relative insensitivity

AEMEECASHL
Km (HCV NS3 protease [1]; [3]): 55 ± 11 µM | kcat (HCV NS3 protease [1]; [3]): 0.015 ± 0.001 s⁻¹ | Km (HCV NS3 protease [1]; [4]): 125 ± 28 µM | kcat (HCV NS3 protease [1]; [4]): 0.00167 ± 0.00033 s⁻¹

Aprotinin
effect of protease inhibitor on cleavage of Pep1 (HeLa lysate; Pep1 as substrate): relative insensitivity

BTLEFCSñSY [Pep B5s]
Keat (HCV NS3 protease [2]; absence (−) of 150 mM Nacl): 23 min⁻¹ | Km (HCV NS3 protease [2]; absence (−) of 150 mM Nacl): 3.5 µM | Keat (HCV NS3 protease [2]; presence (+) of 150 mM Nacl): 36 min⁻¹ | Km (HCV NS3 protease [2]; presence (+) of 150 mM Nacl): 27 µM

DAMEECASHL
Km (HCV NS3 protease [1]; [3]): 143 ± 27 µM | kcat (HCV NS3 protease [1]; [3]): 0.0455 ± 0.014 s⁻¹ | Km (HCV NS3 protease [1]; [4]): 569 ± 150 µM | kcat (HCV NS3 protease [1]; [4]): 0.0143 ± 0.00767 s⁻¹

DEAEECASHL
Km (HCV NS3 protease [1]; [3]): 124 ± 22 µM | kcat (HCV NS3 protease [1]; [3]): 0.0355 ± 0.005 s⁻¹ | Km (HCV NS3 protease [1]; [4]): 409 ± 24 µM | kcat (HCV NS3 protease [1]; [4]): 0.005 ± 0.00033 s⁻¹

DEMAECASHL
Km (HCV NS3 protease [1]; [3]): 190 ± 35 µM | kcat (HCV NS3 protease [1]; [3]): 0.0468 ± 0.011 s⁻¹ | Km (HCV NS3 protease [1]; [4]): 790 ± 205 µM | kcat (HCV NS3 protease [1]; [4]): 0.0055 ± 0.001 s⁻¹

DEMEACASHL
Km (HCV NS3 protease [1]; [3]): 148 ± 44 µM | kcat (HCV NS3 protease [1]; [3]): 0.0432 ± 0.01 s⁻¹ | Km (HCV NS3 protease [1]; [4]): 171 ± 23 µM | kcat (HCV NS3 protease [1]; [4]): 0.00433 ± 0.00017 s⁻¹

DEMEEAASHL
kcat (HCV NS3 protease [1]; [3]): not cleaved | kcat (HCV NS3 protease [1]; [4]): not cleaved

DEMEECAAHL
Km (HCV NS3 protease [1]; [3]): 144 ± 5.6 µM | kcat (HCV NS3 protease [1]; [3]): 0.0513 ± 0.0025 s⁻¹ | Km (HCV NS3 protease [1]; [4]): 191 ± 11 µM | kcat (HCV NS3 protease [1]; [4]): 0.0112 ± 0.00067 s⁻¹

DEMEECASAL
Km (HCV NS3 protease [1]; [3]): 130 ± 15 µM | kcat (HCV NS3 protease [1]; [3]): 0.0602 ± 0.016 s⁻¹ | Km (HCV NS3 protease [1]; [4]): 231 ± 39 µM | kcat (HCV NS3 protease [1]; [4]): 0.0142 ± 0.00267 s⁻¹

DEMEECASHA
Km (HCV NS3 protease [1]; [3]): 219 ± 10 µM | kcat (HCV NS3 protease [1]; [3]): 0.05 ± 0.0157 s⁻¹ | Km (HCV NS3 protease [1]; [4]): 260 ± 37 µM | kcat (HCV NS3 protease [1]; [4]): 0.00967 ± 0.002 s⁻¹

DEMEECASHL
Km (HCV NS3 protease [1]; [5]): 42.8 ± 4.1 µM | kcat (HCV NS3 protease [1]; [5]): 0.0233 ± 0.0012 s⁻¹ | Km (HCV NS3 protease [1]; [6]): 105 ± 20 µM | kcat (HCV NS3 protease [1]; [6]): 0.00433 ± 0.0005 s⁻¹ | Km (HCV NS3 protease [1]; [3]): 42.8 ± 4.1 µM | kcat (HCV NS3 protease [1]; [3]): 0.0233 ± 0.0012 s⁻¹ | Km (HCV NS3 protease [1]; [4]): 105 ± 20 µM | kcat (HCV NS3 protease [1]; [4]): 0.00433 ± 0.0005 s⁻¹

DEMEECASHL [NS4A/4Bs]
Keat (HCV NS3 protease [2]; absence (−) of 150 mM Nacl): 4 min⁻¹ | Km (HCV NS3 protease [2]; absence (−) of 150 mM Nacl): 10 µM | Keat (HCV NS3 protease [2]; presence (+) of 150 mM Nacl): 4 min⁻¹ | Km (HCV NS3 protease [2]; presence (+) of 150 mM Nacl): 500 µM

DEMEECFSHL
Km (HCV NS3 protease [1]; [5]): 156 ± 54 µM | kcat (HCV NS3 protease [1]; [5]): 0.00333 ± 0.00033 s⁻¹

DEMEECSSHL
Km (HCV NS3 protease [1]; [5]): 246 ± 54 µM | kcat (HCV NS3 protease [1]; [5]): 0.0277 ± 0.00367 s⁻¹ | Km (HCV NS3 protease [1]; [6]): 273 ± 21 µM | kcat (HCV NS3 protease [1]; [6]): 0.00533 ± 0.00017 s⁻¹

EDVVaCSñSY [B14s(NS5A/B)]
Keat (HCV NS3 protease [2]; absence (−) of 150 mM Nacl): 34 min⁻¹ | Km (HCV NS3 protease [2]; absence (−) of 150 mM Nacl): 4 µM | Keat (HCV NS3 protease [2]; presence (+) of 150 mM Nacl): 47 min⁻¹ | Km (HCV NS3 protease [2]; presence (+) of 150 mM Nacl): 10 µM

EEMEECASHL
Km (HCV NS3 protease [1]; [5]): 166 ± 15 µM | kcat (HCV NS3 protease [1]; [5]): 0.0482 ± 0.00333 s⁻¹ | Km (HCV NS3 protease [1]; [6]): 254 ± 44 µM | kcat (HCV NS3 protease [1]; [6]): 0.0107 ± 0.00067 s⁻¹

ENSVPCSñSY (not fully specified (C-terminus); printed as ENSVPCSñSY; also: code ñ has no stated meaning) [Pep B28s, substrate peptide for HCV NS3 protease based on selected cleavage site]
Keat (HCV NS3 protease [2]; absence (−) of 150 mM Nacl): 4 min⁻¹ | Km (HCV NS3 protease [2]; absence (−) of 150 mM Nacl): 15 µM | Keat (HCV NS3 protease [2]; presence (+) of 150 mM Nacl): 14.5 min⁻¹ | Km (HCV NS3 protease [2]; presence (+) of 150 mM Nacl): 56 µM

EQVVRCSñSY (not fully specified (C-terminus); printed as EQVVRCSñSY; also: code ñ has no stated meaning) [Pep B8s, substrate peptide for HCV NS3 protease based on selected cleavage site]
Keat (HCV NS3 protease [2]; absence (−) of 150 mM Nacl): 3 min⁻¹ | Km (HCV NS3 protease [2]; absence (−) of 150 mM Nacl): 7 µM | Keat (HCV NS3 protease [2]; presence (+) of 150 mM Nacl): 10.5 min⁻¹ | Km (HCV NS3 protease [2]; presence (+) of 150 mM Nacl): 21 µM

ERLVLCSñSY (not fully specified (C-terminus); printed as ERLVLCSñSY; also: code ñ has no stated meaning) [Pep B19s, substrate peptide for HCV NS3 protease based on selected cleavage site]
Keat (HCV NS3 protease [2]; absence (−) of 150 mM Nacl): 30 min⁻¹ | Km (HCV NS3 protease [2]; absence (−) of 150 mM Nacl): 11 µM | Keat (HCV NS3 protease [2]; presence (+) of 150 mM Nacl): 49 min⁻¹ | Km (HCV NS3 protease [2]; presence (+) of 150 mM Nacl): 12 µM

ERVVLCSñSY (not fully specified (C-terminus); printed as ERVVLCSñSY; also: code ñ has no stated meaning) [Pep B15s, substrate peptide for HCV NS3 protease based on selected cleavage site]
Keat (HCV NS3 protease [2]; absence (−) of 150 mM Nacl): 30 min⁻¹ | Km (HCV NS3 protease [2]; absence (−) of 150 mM Nacl): 30 µM | Keat (HCV NS3 protease [2]; presence (+) of 150 mM Nacl): 44.5 min⁻¹ | Km (HCV NS3 protease [2]; presence (+) of 150 mM Nacl): 13 µM

KEMEECASHL
Km (HCV NS3 protease [1]; [5]): 449 ± 91 µM | kcat (HCV NS3 protease [1]; [5]): 0.0447 ± 0.00033 s⁻¹ | Km (HCV NS3 protease [1]; [6]): 1050 ± 430 µM | kcat (HCV NS3 protease [1]; [6]): 0.00433 ± 0.00167 s⁻¹

NEMEECASHL
Km (HCV NS3 protease [1]; [5]): 188 ± 44 µM | kcat (HCV NS3 protease [1]; [5]): 0.0483 ± 0.00767 s⁻¹ | Km (HCV NS3 protease [1]; [6]): 630 ± 62 µM | kcat (HCV NS3 protease [1]; [6]): 0.00617 ± 0.00417 s⁻¹

Pep1: designed fluorescent (EDANS/DABCYL) 3C protease substrate based on multiple HRV 3C cleavage sites and bioinformatics, Table 14 (LEALFQGPDSQ; not fully specified)
duration of linear kinetics (HRV 3C protease): at least 3 minutes | effect of nasal wash on substrate cleavage by recombinant HRV 3C (HRV 3C protease): absence of effect | lower limit of protease detection (HRV 3C protease): 0.5 to 1.0 nM | specificity of substrate for cleavage with HRV 3C protease (HRV 3C protease): absolute specificity | substrate cleavage compared to the native cleavage site (Ori 2) (HRV 3C protease): superior substrate cleavage | substrate exhibiting the most rapid kinetics out of Pep 1-Pep 9 (HRV 3C protease): most rapid kinetics | cleavage reaction with E. coli lysate (E. coli lysate): absence of any detectable cleavage reaction | cleavage reaction with SARS 3CL lysate (SARS 3CL protease): absence of any detectable cleavage reaction
